The labels stand for the following.
B2: S100A9 (calgranulin B) (natural protein)
chain: TCKMSQLERNIETIINTFHQYSVKLGHPDTLNQGEFKELVRKDLQNFLKKENKNEKVIEHIMEDLDTNADKQLSFEEFIMLMARLTWASHEKMHEGDEGPGHHHKPGLGEGTP
notes: S100A9 (calgranulin B); construct His6-SUMO-S100A9 in pET28a, tag removed by SENP1; also called S100A9 subunit of calprotectin (CP); source: E. coli BL21(DE3), purified (Ni2+ Sepharose, SENP1 cleavage of His6-SUMO, second Ni2+ column, Superdex 75 SEC); not shown: His6, N-terminal, cleaved; SUMO, N-terminal, cleaved

Data set [1] deals with the molecule itself. The data set is described as follows: dynamic light scattering; 100 uM S100A8, 100 uM S100A9, 50 uM CP; 50 mM HEPES pH 7.4; 8 °C; hydrodynamic radius compared with published radii of S100 dimers.
In the data set “S100A9 (calgranulin B)” the target is B2. The data set is described as follows: SEC; Tricorn 10/300 column with Superdex 75 prep grade, 50 mM HEPES pH 7.4, 1 mM EDTA, 1 mM TCEP, no calcium; CP formed from an equimolar mix of S100A8 and S100A9 by acid denaturation (pH 2.0-2.5), stepwise dialysis and anion exchange. The following applies: both partners purified. In general terms: In gel filtration, larger molecules generally elute earlier.

B1: S100A8 (calgranulin A) (natural protein)
chain: MLTELEKALNSIIDVYHKYSLIKGNFHAVYRDDLKKLLETECPQYIRKKGADVWFKELDINTDGAVNFQEFLILVIKMGVAAHKKSHEESHKE
notes: S100A8 (calgranulin A); construct His6-SUMO-S100A8 in pET28a, tag removed by SENP1; also called S100A8 subunit of calprotectin (CP); source: E. coli BL21(DE3), purified (Ni2+ Sepharose, SENP1 cleavage of His6-SUMO, second Ni2+ column, Superdex 75 SEC); not shown: His6, N-terminal, cleaved; SUMO, N-terminal, cleaved
For B1, the binding result (in data set [1]; with S100A9 (calgranulin B)) was “binds” throughout.

Regarding B2, the binding result in data set [1] is on record as “binds”.
